Laboratory results as given in patent US20150266975, “RNA-SPECIFIC BINDING ANTIBODY” (Korea Advanced Institute of Science and Technology, published 2015).

Biological target: T1, MabBC200-A3 (Homo sapiens)
T1 chain 1: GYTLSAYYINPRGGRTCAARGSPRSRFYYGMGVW
T1 chain 2: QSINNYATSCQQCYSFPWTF
Test: filter; room temperature
Settings: hairpin with internal loops

B1: RNA (51-120) (ssRNA)
RNA: GGGAGGCGGGAGGAUAGCUUGAGCCCAGGAGUUCGAGACCUGCCUGGGCAAUAUAGCGAGACCCCGUUCUCCC
  Kd: ~10 nM
